Biological target: STX17-Flag (UniProt P56962)
Experiment: co-IP

**Q.** How did the reduction of the co-immunoprecipitated interaction against STING WT turn out when “STING-HA C148A (from UniProt Q86WV6 1-379) (natural protein)” was run?
**A.** 50%

Source: paper PMC9082627
